This assay addresses Recombinant Human VEGF-A165 (human). Nature of the assay: ELISA; VEGF 165 (0.5 ug) on 96-well plates; serial dilutions (0.05 to 10 uM) of Flag-tagged HSPB1 wild type or C-terminal HSPB1 in PBS plus 1% BSA, 37°C, 2 hours; detected with anti-flag monoclonal antibody; Kd by Scatchard analysis.

In the case of “C-terminal HSPB1 fragment, secretory HSPB1 (59-203) (from UniProt P04792 59-203) (domain or fragment)”, the Kd amounted to 0.78 µM.

“Flag-tagged secretory wild-type HSPB1 (from UniProt P04792 1-205) (natural protein)”: the Kd worked out at 10.8 µM.

For the origin of these results see article PMC3896397.
